B1: DNA repair protein complementing XP-C cells (Homo sapiens), Q01831-1 (parent)
chain: MARKRAAGGEPRGRELRSQKSKAKSKARREEEEEDAFEDEKPPKKSLLSKVSQGKRKRGCSHPGGSADGPAKKKVAKVTVKSENLKVIKDEALSDGDDLRDFPSDLKKAHHLKRGATMNEDSNEEEEESENDWEEVEELSEPVLGDVRESTAFSRSLLPVKPVEIEIETPEQAKTRERSEKIKLEFETYLRRAMKRFNKGVHEDTHKVHLLCLLANGFYRNNICSQPDLHAIGLSIIPARFTRVLPRDVDTYYLSNLVKWFIGTFTVNAELSASEQDNLQTTLERRFAIYSARDDEELVHIFLLILRALQLLTRLVLSLQPIPLKSATAKGKKPSKERLTADPGGSSETSSQVLENHTKPKTSKGTKQEETFAKGTCRPSAKGKRNKGGRKKRSKPSSSEEDEGPGDKQEKATQRRPHGRERRVASRVSYKEESGSDEAGSGSDFELSSGEASDPSDEDSEPGPPKQRKAPAPQRTKAGSKSASRTHRGSHRKDPSLPAASSSSSSSKRGKKMCSDGEKAEKRSIAGIDQWLEVFCEQEEKWVCVDCVHGVVGQPLTCYKYATKPMTYVVGIDSDGWVRDVTQRYDPVWMTVTRKCRVDAEWWAETLRPYQSPFMDREKKEDLEFQAKHMDQPLPTAIGLYKNHPLYALKRHLLKYEAIYPETAAILGYCRGEAVYSRDCVHTLHSRDTWLKKARVVRLGEVPYKMVKGFSNRARKARLAEPQLREENDLGLFGYWQTEEYQPPVAVDGKVPRNEFGNVYLFLPSMMPIGCVQLNLPNLHRVARKLDIDCVQAITGFDFHGGYSHPVTDGYIVCEEFKDVLLTAWENEQAVIERKEKEKKEKRALGNWKLLAKGLLIRERLKRRYGPKSEAAAPHTDAGGGLSSDEEEGTSSQAEAARILAASWPQNREDEEKQKLKGGPKKTKREKKAAASHLFPFEQL

In the first experiment the parent is B1. To be noted: with tf2h1_human GTF2H1, P32780.
Chain of tf2h1_human GTF2H1, P32780 (P32780 whole entry): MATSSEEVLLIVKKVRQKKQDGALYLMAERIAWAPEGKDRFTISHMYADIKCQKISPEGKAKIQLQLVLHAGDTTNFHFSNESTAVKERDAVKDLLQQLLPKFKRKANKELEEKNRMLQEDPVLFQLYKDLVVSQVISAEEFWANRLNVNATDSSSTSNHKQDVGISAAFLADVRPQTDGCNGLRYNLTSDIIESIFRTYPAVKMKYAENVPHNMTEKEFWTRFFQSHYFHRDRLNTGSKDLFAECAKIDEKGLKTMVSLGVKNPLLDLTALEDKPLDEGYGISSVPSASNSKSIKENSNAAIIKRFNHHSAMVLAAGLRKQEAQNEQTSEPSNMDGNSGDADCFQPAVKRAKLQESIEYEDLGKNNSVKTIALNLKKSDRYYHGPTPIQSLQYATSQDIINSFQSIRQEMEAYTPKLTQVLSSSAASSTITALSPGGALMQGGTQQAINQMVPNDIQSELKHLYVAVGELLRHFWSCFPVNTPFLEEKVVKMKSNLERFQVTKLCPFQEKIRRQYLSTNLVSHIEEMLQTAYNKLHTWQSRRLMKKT
Turning to E128A, the “effect of a mutation on the interaction” value is recorded as “decreasing interaction strength”.
The same measure, in the same setting: in the case of W133F it was “decreasing interaction strength”; in that of W133A, “disrupting interaction strength”.
The same measure, in the same setting: the entry for V136A is “decreasing interaction strength”; for L139A it is “decreasing interaction strength”.

A further experiment covers variants of B1. The following applies: with ercc3_human ERCC3, P19447.
Chain of ercc3_human ERCC3, P19447 (P19447 whole entry): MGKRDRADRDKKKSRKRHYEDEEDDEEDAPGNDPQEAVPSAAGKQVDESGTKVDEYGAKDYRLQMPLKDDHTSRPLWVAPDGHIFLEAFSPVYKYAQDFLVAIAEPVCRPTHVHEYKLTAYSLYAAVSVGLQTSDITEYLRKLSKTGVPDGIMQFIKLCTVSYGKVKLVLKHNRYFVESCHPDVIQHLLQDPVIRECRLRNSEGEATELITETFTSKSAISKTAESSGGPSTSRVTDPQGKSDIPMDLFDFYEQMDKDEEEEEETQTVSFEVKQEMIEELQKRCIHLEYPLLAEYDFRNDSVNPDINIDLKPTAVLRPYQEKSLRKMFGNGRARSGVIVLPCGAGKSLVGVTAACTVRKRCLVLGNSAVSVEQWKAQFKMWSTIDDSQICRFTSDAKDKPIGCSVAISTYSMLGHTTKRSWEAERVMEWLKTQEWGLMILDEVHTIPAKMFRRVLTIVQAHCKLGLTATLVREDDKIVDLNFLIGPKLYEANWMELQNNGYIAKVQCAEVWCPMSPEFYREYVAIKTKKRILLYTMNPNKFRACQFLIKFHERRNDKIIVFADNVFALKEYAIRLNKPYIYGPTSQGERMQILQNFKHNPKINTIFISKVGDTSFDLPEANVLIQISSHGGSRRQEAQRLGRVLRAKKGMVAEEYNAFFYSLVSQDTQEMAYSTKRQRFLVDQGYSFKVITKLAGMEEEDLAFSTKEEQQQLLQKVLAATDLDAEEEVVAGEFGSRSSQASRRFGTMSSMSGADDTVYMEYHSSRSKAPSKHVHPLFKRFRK
Turning to W133A, the “effect of a mutation on the interaction” value was “decreasing interaction strength”.
The same measure, in the same setting: the entry for V136A is “decreasing interaction strength”; for W133A;V136A it is “decreasing interaction strength”.

The values are drawn from IntAct's records for PubMed 26278177.
